Measurements from doi:10.1101/2022.02.14.480394 (bioRxiv, 2022).

Molecular target: Receptor Binding-Domain (RBD) of SARS-CoV-2 Spike (S) protein, Wuhan-Hu-1 (SARS-CoV-2, UniProt P0DTC2)
Experiment: BLI

| Binder | binding result |
| --- | --- |
| C118 (antibody, V domains shown) VH: QVQLVESGGGVVQPGRSLRLSCAASGFTFSNYAMHWVRQAPGKGLEWVAVISYDGSNKYYADSVKGRFTISRDNSKNTLYLQMNSLRAEDTAIYYCASGYTGYDYFVRGDYYGLDVWGQGTTVTVSS VL: QPVLTQSPSASASLGASVKLTCTLSSGHSSYAIAWHQQQPEKGPRYLMKLNTDGSHSKGDGIPDRFSGSSSGAERYLTISSLQSEDEADYYCQTWGTGILVFGGGTKLTVL | binds |
| C105 (antibody, V domains shown) VH: QVQLVESGGGLIQPGGSLRLSCAASGFTVSSNYMSWVRQAPGKGLEWVSVIYSGGSTYYADSVKGRFTISRDNSKNTLYLQMNSLRAEDTAVYYCARGEGWELPYDYWGQGTLVTVSS VL: QSALTQPPSASGSPGQSVTISCTGTSSDVGGYKYVSWYQQHPGKAPKLMIYEVSKRPSGVPDRFSGSKSGNTASLTVSGLQAEDEADYYCSSYEGSNNFVVFGGGTKLTVL | binds |
